Data: PMC4325132 (FEBS Open Bio, 2015)

Key:
[1] = molecular target: mouse cardiac TnI A117G mutation (mouse, UniProt P48787 1-211, A117G); assay: ELISA
[2] = molecular target: mouse cardiac TnI K118C mutation (mouse, UniProt P48787 1-211, K118C); assay: ELISA
Chain of mouse cardiac TnI K118C mutation (P48787 whole entry K118C): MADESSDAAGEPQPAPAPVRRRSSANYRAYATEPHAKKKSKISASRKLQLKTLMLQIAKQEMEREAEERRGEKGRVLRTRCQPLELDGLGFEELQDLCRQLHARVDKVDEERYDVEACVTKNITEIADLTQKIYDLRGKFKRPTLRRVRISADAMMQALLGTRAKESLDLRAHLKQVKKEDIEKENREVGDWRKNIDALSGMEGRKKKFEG

Chain of mouse cardiac TnI A117G mutation (P48787 whole entry A117G): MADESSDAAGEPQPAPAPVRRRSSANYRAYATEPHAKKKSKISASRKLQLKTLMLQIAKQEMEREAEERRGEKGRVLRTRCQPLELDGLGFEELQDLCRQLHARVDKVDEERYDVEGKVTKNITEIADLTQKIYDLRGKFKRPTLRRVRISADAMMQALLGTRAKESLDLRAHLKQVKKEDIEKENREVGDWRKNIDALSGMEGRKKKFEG

B1: Chicken fast TnC (natural protein)
chain: not shown
Q: Does B1 bind [1]?
A: binds

Q: Does B1 bind [2]?
A: binds
